# T1: phyB (Arabidopsis thaliana, UniProt P14713)
# T1 construct: full length (1172 aa), strep-tagged from Pichia pastoris GS115 or GFP fusion from Saccharomyces cerevisiae; holoprotein with phycocyanobilin; dimer
# T1 sequence (P14713 1-1172): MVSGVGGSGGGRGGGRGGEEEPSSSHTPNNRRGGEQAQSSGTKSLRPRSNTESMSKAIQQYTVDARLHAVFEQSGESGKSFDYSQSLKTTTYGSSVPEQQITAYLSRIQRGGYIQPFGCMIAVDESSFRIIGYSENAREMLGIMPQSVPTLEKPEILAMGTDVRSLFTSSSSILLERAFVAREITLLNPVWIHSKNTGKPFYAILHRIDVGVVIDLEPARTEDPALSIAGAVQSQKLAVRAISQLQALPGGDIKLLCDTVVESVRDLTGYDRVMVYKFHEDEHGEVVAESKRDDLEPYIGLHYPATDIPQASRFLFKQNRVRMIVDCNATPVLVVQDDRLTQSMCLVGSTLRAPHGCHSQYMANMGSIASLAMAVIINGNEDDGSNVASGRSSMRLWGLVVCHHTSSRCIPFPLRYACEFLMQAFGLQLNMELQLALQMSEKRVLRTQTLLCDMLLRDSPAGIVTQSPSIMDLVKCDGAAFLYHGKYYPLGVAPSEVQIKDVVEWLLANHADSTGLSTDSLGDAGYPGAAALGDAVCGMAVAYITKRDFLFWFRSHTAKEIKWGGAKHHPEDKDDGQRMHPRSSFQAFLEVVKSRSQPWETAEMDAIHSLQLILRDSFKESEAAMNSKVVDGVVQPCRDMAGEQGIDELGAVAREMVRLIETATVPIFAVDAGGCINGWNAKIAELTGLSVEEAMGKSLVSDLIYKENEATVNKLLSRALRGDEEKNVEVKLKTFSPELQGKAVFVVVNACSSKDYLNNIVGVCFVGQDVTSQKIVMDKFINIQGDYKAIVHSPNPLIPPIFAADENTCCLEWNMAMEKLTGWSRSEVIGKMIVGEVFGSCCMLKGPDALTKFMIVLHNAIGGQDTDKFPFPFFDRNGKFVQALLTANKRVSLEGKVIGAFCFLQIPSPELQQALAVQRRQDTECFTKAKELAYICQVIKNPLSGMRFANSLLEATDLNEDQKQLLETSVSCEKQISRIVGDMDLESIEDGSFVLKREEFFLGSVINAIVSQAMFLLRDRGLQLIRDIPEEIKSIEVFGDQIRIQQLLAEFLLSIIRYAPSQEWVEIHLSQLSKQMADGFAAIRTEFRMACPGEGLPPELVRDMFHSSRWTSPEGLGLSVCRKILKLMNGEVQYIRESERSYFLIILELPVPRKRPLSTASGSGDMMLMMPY
# T2: Arabidopsis phytochrome B holoprotein purified from Pichia pastoris (Arabidopsis, UniProt P14713 1-1172, phycocyanobilin chromophore assembled)
# T2 construct: phytochrome B (phyB), Arabidopsis; also called phyB; Pfr form of phyB; source: Pichia pastoris GS115, purified (ammonium sulfate, Strep-Tactin Sepharose)
# T2 sequence (looked up): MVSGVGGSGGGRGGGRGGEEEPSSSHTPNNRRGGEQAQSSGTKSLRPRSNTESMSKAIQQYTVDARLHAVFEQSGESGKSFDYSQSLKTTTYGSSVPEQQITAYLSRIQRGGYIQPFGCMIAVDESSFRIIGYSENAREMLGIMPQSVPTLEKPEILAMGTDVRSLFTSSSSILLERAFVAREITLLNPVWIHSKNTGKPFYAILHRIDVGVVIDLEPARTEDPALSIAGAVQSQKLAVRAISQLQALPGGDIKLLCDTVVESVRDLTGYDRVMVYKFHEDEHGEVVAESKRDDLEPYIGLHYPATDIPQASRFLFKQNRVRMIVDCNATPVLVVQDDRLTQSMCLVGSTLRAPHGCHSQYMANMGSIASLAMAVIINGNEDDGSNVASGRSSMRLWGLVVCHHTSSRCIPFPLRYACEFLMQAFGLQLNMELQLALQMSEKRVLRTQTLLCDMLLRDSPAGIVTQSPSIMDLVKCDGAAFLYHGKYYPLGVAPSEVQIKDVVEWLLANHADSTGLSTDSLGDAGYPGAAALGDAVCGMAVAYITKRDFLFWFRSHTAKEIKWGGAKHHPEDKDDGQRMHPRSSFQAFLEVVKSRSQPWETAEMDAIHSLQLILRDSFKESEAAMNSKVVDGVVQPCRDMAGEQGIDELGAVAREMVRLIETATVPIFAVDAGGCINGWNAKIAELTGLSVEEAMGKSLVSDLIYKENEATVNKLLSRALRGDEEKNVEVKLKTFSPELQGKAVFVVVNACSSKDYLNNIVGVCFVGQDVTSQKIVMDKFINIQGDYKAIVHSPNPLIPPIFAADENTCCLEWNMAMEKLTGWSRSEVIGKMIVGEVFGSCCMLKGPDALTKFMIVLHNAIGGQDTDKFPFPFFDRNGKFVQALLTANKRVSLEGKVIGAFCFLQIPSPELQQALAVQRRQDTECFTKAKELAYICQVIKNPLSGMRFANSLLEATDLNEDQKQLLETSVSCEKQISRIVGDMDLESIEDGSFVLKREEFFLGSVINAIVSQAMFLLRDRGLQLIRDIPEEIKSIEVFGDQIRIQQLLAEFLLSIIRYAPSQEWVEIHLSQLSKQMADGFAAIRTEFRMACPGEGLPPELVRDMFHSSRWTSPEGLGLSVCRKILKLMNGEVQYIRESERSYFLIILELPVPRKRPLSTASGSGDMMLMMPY
# T3: phyB-GFP ΔC purified from yeast (Saccharomyces cerevisiae) (Arabidopsis, UniProt P14713 1-1092, phycocyanobilin (PCB) chromophore assembled)
# T3 construct: phytochrome B (phyB), Arabidopsis, residues 1-1092 (lacks the last 80 amino acids); The methods describe the yeast purification only for the full-length protein; also called phyB ΔC-GFP; source: Saccharomyces cerevisiae, purified; not shown: GFP, C-terminal, kept
# T3 sequence (looked up): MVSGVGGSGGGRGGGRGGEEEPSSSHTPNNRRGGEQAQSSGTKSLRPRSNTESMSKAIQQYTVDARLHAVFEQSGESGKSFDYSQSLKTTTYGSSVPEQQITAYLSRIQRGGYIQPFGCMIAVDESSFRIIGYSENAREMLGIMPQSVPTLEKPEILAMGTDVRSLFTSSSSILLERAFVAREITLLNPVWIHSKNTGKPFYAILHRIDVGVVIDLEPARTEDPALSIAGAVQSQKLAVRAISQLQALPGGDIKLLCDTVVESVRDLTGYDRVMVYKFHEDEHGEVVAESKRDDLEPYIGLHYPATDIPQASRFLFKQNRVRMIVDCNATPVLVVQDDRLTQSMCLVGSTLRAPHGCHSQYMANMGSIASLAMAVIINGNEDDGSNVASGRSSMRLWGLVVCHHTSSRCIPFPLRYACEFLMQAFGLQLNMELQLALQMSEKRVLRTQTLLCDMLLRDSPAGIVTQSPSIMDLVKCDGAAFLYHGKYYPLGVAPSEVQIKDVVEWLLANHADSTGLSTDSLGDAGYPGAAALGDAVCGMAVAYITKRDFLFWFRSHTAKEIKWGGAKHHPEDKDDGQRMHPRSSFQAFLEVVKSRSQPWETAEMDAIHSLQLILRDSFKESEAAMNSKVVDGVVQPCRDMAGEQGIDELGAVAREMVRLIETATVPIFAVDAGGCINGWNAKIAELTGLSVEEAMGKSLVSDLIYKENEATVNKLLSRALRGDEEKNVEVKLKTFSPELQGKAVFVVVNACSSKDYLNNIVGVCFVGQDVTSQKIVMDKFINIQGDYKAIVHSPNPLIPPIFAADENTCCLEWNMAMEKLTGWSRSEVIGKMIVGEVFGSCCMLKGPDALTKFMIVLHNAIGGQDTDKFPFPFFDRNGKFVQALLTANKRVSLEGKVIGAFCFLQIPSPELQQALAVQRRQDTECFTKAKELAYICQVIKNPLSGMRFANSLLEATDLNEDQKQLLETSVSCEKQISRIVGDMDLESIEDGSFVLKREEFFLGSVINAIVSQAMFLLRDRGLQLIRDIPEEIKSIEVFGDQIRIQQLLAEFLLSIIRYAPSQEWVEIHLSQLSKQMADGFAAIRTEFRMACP
# Assays:
# [1] = target: T1, phyB; test: in vitro kinase assay, autoradiogram; type: biochemical; details: PIF1 as co-substrate, 10 mM MgCl2, pH 7.5, 28 °C; labelled compound (gamma-32P)
# [2] = target: T2, Arabidopsis phytochrome B holoprotein …; test: pull-down; tripartite complex: 2 µg GST-PIF1-strep on GST agarose beads, 1-2 µg purified phyB from Pichia pastoris, with E. coli lysate holding MBP-SPA1; anti-strep blot; details: both partners purified
# [3] = target: T3, phyB-GFP ΔC purified from yeast …; test: pull-down; in vitro: phytochromes purified from yeast (S. cerevisiae) and GST-PIF1; light-dependent; details: both partners purified
binding result [2],binding result [3],Molecule,"in vitro kinase assay, autoradiogram [1]"
–,–,Nc1ncnc2c1ncn2[C@@H]1O[C@H](COP(=O)(O)OP(=O)(O)OP(=O)(O)O)[C@@H](O)[C@H]1O [ATP],both SPA1 and phyB independently phosphorylates PIF1 in vitro
binds,binds,"GST-PIF1-strep (natural protein, Arabidopsis, UniProt Q8GZM7 1-478, looked up, source: E. coli BL21(DE3), purified (Strep-Tactin Sepharose); not shown: GST, N-terminal, kept; Strep tag, C-terminal, kept) MHHFVPDFDTDDDYVNNHNSSLNHLPRKSITTMGEDDDLMELLWQNGQVVVQNQRLHTKKPSSSPPKLLPSMDPQQQPSSDQNLFIQEDEMTSWLHYPLRDDDFCSDLLFSAAPTATATATVSQVTAARPPVSSTNESRPPVRNFMNFSRLRGDFNNGRGGESGPLLSKAVVRESTQVSPSATPSAAASESGLTRRTDGTDSSAVAGGGAYNRKGKAVAMTAPAIEITGTSSSVVSKSEIEPEKTNVDDRKRKEREATTTDETESRSEETKQARVSTTSTKRSRAAEVHNLSERKRRDRINERMKALQELIPRCNKSDKASMLDEAIEYMKSLQLQIQMMSMGCGMMPMMYPGMQQYMPHMAMGMGMNQPIPPPSFMPFPNMLAAQRPLPTQTHMAGSGPQYPVHASDPSRVFVPNQQYDPTSGQPQYPAGYTDPYQQFRGLHPTQPPQFQNQATSYPSSSRVSSSKESEDHGNHTTG",–

# From paper PMC6746701, “A phyB-PIF1-SPA1 kinase regulatory complex promotes photomorphogenesis in Arabidopsis” (Nature Communications, 2019)
